The values that follow come from publication PMC2748697.

The test has as its target tubulin (bovine, Cytoskeleton) (bovine) (UniProt Q6B856).

In the case of “GST-tagged full-length Capzb2 (1–271) (from UniProt P47757-2 1-272) (natural protein)”, the reduction of the extent of tubulin polymerization at 0.5, 1 and 10 µM Capzb2 (8%, 16%, 35%; none at 0.1 µM) was found to be 35%.
